From paper PMC10354202
Blank lines part the entries; values can stand above or below the substance they belong to.

Assays:
[1] = molecular target: actin from rabbit skeletal muscle (rabbit) (UniProt P68135)
[2] = molecular target: (Ig32)2-(R3^IVVI)-(Ig32)2 polyprotein, talin R3 domain with the IVVI mutation; assay: magnetic tweezers; details: parent: est. 9 s, read off a plot
[3] = molecular target: (Ig32)2-(R3^IVVI)-(Ig32)2 polyprotein, talin R3 domain with the IVVI mutation; assay: single-molecule magnetic tweezers; talin R3 polyprotein tethered between glass and bead; vinculin allowed to bind at 8.5 pN for a variable time, then a 40 pN pulse to force dissociation; unbinding times at 40 pN (square-root histogram); PBS with 10 mM ascorbic acid, pH 7.3
[4] = molecular target: (Ig32)2-(R3^IVVI)-(Ig32)2 polyprotein, talin R3 domain with the IVVI mutation; assay: single-molecule magnetic tweezers; talin R3 polyprotein tethered between glass (HaloTag) and streptavidin-coated bead (biotinylated AviTag); vinculin in solution (20 nM FLV); constant low force (~8.5 pN, up to ~9-10 pN); PBS with 10 mM ascorbic acid, pH 7.3; Kd from the paper's kinetic model
[5] = molecular target: (Ig32)2-(R3^IVVI)-(Ig32)2 polyprotein, talin R3 domain with the IVVI mutation; assay: single-molecule magnetic tweezers; talin R3 polyprotein tethered between glass and bead; vinculin in solution (20 nM FLV); constant higher forces (12.5 pN, 15 pN; above ~10 pN), reversible binding and unbinding steps; unbinding rates against force fitted to the Bell-Evans model; PBS with 10 mM ascorbic acid, pH 7.3

Chain of full-length human vinculin, wild type (P18206 other isoform, or with tags, fused parts or gaps): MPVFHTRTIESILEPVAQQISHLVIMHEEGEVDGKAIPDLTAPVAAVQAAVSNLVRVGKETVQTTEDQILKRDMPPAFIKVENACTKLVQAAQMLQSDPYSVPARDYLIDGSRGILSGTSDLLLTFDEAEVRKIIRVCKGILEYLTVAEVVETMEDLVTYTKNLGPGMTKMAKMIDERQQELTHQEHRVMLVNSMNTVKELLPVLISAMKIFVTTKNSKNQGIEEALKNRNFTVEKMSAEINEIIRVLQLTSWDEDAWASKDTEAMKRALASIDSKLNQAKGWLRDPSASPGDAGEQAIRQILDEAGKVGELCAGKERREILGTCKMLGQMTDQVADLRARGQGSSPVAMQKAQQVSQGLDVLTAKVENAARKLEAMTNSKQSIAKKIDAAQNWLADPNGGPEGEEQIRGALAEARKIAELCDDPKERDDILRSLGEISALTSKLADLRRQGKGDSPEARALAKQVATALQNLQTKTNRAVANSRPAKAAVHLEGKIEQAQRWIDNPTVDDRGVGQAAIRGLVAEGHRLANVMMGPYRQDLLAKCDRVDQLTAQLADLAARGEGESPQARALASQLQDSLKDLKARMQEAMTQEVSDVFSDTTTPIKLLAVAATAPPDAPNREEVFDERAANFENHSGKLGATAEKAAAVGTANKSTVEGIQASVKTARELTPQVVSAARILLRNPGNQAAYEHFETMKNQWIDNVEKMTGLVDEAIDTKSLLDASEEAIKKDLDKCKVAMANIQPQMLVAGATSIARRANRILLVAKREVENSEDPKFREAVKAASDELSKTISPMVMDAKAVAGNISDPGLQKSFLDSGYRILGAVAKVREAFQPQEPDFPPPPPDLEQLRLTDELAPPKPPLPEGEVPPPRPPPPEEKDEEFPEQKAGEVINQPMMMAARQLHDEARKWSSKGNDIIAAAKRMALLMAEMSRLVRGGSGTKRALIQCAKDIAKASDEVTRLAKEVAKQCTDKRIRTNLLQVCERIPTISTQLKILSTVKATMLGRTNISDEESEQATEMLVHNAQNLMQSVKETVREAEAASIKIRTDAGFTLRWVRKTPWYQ

- ratio of bundled actin of 5M against that of the 4M variant, TIRF microscopy, no talin-VBS1 [1]: 1.4 fold over 4M
Substance: full-length human vinculin K944A-R945A-D1013A-E1015A-E986A (5M) (from UniProt P18206-2 1-1066) (natural protein)

- other: average unbinding time at 40 pN [2]: 20 s
Substance: full-length human vinculin, wild type (from UniProt P18206-2) T12

- timescale of maturation from the weak to the stable bound state [3]: 37 s
- unbinding time at 40 pN, stronger binding mode (t2) [3]: 7.4 s
- unbinding time at 40 pN, weak binding mode (t1) [3]: 0.4 s
- Kd, initial bound state, low forces (up to ~9-10 pN) [4]: 0.2 nM
- Kd, mature bound state, low forces (up to ~9-10 pN) [4]: 4 pM
- timescale of unbinding at ~8.5 pN [4]: 1 hour
- Kd, forces above ~10 pN [5]: 0.005 µM
- k0, intrinsic off-rate (Bell-Evans fit of the unbinding rates, zero force) [5]: 0.0066 s⁻¹
- unbinding rate of Fig. 1G extrapolated to ~8.5 pN [5]: 0.01 s⁻¹
Substance: full-length human vinculin, wild type (from UniProt P18206-2 1-1066) (natural protein)
